The values that follow are results of earlier work, collected in publication PMC7390727.

What is called Kd is the equilibrium constant for the complex coming apart.

Where two headings read alike, the source gives them in different places.

Data set [1] concerns the target chemoreceptor C-terminal pentapeptide (Salmonella typhimurium).
For data set [2] the target is unchanged. This is another data set of the same source.

With CheB (from UniProt P04042), in data set [1], the Kd was 160 µM.
With CheR (from UniProt P07801), in data set [2], the Kd is 2 µM.
